Legend:
C/EBP (C/EBPalpha) [1] = molecular target: T1, C/EBP (C/EBPalpha) (Rattus norvegicus, UniProt P05554 P05554:1-358); assay: EMSA; details: tags: E. coli pT7-7, about 40 kDa, chain copies: 2
C/EBP (C/EBPalpha) [2] = molecular target: T1, C/EBP (C/EBPalpha); assay: EMSA; text cites SEQ ID NO:41, Table 3 lists AlbD as SEQ ID NO:47; details: tags: E. coli pT7-7, about 40 kDa; chain copies: 2; label: 32P
C/EBP (C/EBPalpha) [3] = molecular target: T1, C/EBP (C/EBPalpha); assay: EMSA; C/EBP-BA3 complex; details: tags: E. coli pT7-7, about 40 kDa; chain copies: 2; label: 32P

T1 sequence (P05554 whole entry, one chain of several): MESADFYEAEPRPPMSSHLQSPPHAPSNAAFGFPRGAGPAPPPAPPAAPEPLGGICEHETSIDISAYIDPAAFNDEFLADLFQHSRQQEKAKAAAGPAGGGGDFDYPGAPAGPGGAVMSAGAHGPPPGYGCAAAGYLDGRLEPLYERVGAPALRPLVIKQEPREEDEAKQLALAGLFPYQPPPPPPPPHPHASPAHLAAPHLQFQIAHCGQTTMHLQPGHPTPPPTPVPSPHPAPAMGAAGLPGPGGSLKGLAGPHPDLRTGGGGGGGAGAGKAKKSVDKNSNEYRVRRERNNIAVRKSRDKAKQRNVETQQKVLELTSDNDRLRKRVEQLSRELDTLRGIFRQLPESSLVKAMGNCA

B1: CIIIB(WT) apoCIII -92 to -67 (dsDNA)
DNA 1: GGTCAGCAGGTGACCTTTGCCCAGCG
DNA 2: CGCTGGGCAAAGGTCACCTGCTGACC
- binding result (C/EBP (C/EBPalpha) [1]; label: 32P, GGG/CCC 5' overhangs): no binding

B2: apoA-II element K (-760 to -743) (dsDNA)
DNA 1: TAAGGTGATCAAATGACC
DNA 2: GGTCATTTGATCACCTTA
- binding result (C/EBP (C/EBPalpha) [1]): no binding

B3: Albumin D C/EBP site (AlbD, -115 to -90) (dsDNA)
DNA 1: TGGTATGATTTTGTAATGGGGTAGGA
DNA 2: TCCTACCCCATTACAAAATCATACCA
- binding result (C/EBP (C/EBPalpha) [2]): binds

B4: BA3 apoB -78 to -48 (dsDNA)
DNA 1: GCCCTTTGGACCTTTTGCAATCCTGGCGCT
DNA 2: AGCGCCAGGATTGCAAAAGGTCCAAAGGGC
- binding result (C/EBP (C/EBPalpha) [3]): binds
